From patent US20200317768A1 (published 2020)
Numbering of substitutions follows the chain as printed.

T1: cynomolgus monkey FcγRIIa1 extracellular domain, C-terminal His-tag (cynomolgus monkey)
T1 construct: also called cyno FcγRIIa1; cynoFcgRIIa1; not shown: His-tag added to C-terminus
T1 chain: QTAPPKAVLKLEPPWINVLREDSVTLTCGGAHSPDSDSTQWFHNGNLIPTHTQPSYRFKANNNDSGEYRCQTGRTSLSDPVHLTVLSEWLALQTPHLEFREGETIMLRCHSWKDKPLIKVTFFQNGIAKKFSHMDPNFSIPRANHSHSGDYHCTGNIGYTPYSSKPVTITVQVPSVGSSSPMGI

T2: cynomolgus monkey FcγRIIa2 extracellular domain, C-terminal His-tag (cynomolgus monkey)
T2 construct: also called cyno FcγRIIa2; cynoFcgRIIa2; not shown: His-tag added to C-terminus
T2 chain: T1 chain with P95T, T121A, I127K, A128S, K130N, D135N, R142Q

T3: cynomolgus monkey FcγRIIb extracellular domain, C-terminal His-tag (cynomolgus monkey)
T3 construct: also called cyno FcγRIIb; cynoFcγRIIb; not shown: His-tag added to C-terminus
T3 chain: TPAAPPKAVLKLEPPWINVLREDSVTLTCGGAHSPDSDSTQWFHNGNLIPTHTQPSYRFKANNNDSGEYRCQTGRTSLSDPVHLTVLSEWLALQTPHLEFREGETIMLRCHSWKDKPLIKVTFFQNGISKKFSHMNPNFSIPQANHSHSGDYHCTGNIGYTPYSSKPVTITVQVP

T4: human FcγRIIaH extracellular domain, C-terminal His-tag (human, UniProt P12318 34-217)
T4 construct: also called human FcγRIIa (type H); FcgRIIaH; not shown: His-tag added to C-terminus
T4 sequence: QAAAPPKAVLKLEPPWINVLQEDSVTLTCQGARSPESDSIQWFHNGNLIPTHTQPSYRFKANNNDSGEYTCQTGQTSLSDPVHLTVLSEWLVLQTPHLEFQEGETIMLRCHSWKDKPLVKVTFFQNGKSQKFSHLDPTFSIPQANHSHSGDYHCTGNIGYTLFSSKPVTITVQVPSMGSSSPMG

T5: human FcγRIIb extracellular domain, C-terminal His-tag (human, UniProt P31994 43-217)
T5 construct: also called FcgRIIb (human); not shown: His-tag added to C-terminus
T5 sequence: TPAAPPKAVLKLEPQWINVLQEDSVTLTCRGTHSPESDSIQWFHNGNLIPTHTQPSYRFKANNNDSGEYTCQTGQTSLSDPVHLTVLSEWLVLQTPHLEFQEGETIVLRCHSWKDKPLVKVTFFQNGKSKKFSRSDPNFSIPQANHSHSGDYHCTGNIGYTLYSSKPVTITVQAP

B1: M103205H795-MY278/M103202L889-SK1 (antibody, human IgG1, kappa)
heavy: QVTLKESGPVLVKPTETLTLTCTVSGIDLSHDDISWVRQAPGKGLEWVGIISYAGSTYYASWAKGRLTISKDTSKNQVVLTMTNMDPVDTATYYCARGVPAYSHGGDLWGQGTLVTVSSASTKGPSVFPLAPSSKSTSGGTAALGCLVKDYFPEPVTVSWNSGALTSGVHTFPAVLQSSGLYSLSSVVTVPSSSLGTQTYICNVNHKPSNTKVDKKVEPKSCDKTHTCPPCPAPELLMGPSVFLFPPKPKDTLMISRTPEVTCVVVDVSDEDPEVKFNWYVDGVEVHNAKTKPREELYNSTYRVVSVLTVLHQDWLNGKEYKCKVSNKALPKPIEKTISKAKGQPREPQVYTLPPSREEMTKNQVSLTCLVKGFYPSDIAVEWESNGQPENNYKTTPPVLDSDGSFFLYSKLTVDKSRWQQGNVFSCSVMHEALHNHYTQKSLSLSP
light: DIVMTQSPATLSLSPGERATLSCTSSQSVYHANWLSWFQQKPGQPPKLLIYWASTLAYGVPSRFSGSGSGTDFTLTISSLQPEDAATYYCAGGYGGGRYAFGQGTKVEIKRTVAAPSVFIFPPSDEQLKSGTASVVCLLNNFYPREAKVQWKVDNALQSGNSQESVTEQDSKDSTYSLSSTLTLSKADYEKHKVYACEVTHQGLSSPVTKSFNRGEC
B2: M103205H795-MY312/M103202L889-SK1 (antibody, human IgG1, kappa)
heavy: B1 heavy with M238T, D270E, L297Q, K328T, P398M
light: B1 light
B3: M103205H795-MY279/M103202L889-SK1 (antibody, human IgG1, kappa)
heavy: B1 heavy with M238H
light: B1 light
B4: M103205H795-MY293/M103202L889-SK1 (antibody, human IgG1, kappa)
heavy: B1 heavy with M238G, G239Y, D270E, P398K
light: B1 light
B5: M103205H795-MY280/M103202L889-SK1 (antibody, human IgG1, kappa)
heavy: B1 heavy with M238V
light: B1 light
B6: M103205H795-MY292/M103202L889-SK1 (antibody, human IgG1, kappa)
heavy: B1 heavy with M238G, G239Y, P398M
light: B1 light
B7: M103205H795-MY310/M103202L889-SK1 (antibody, human IgG1, kappa)
heavy: B1 heavy with M238T, D270E, L297Q, K328T
light: B1 light
B8: M103205H795-MY311/M103202L889-SK1 (antibody, human IgG1, kappa)
heavy: B1 heavy with M238T, D270E
light: B1 light
B9: M103205H795-MY321/M103202L889-SK1 (antibody, human IgG1, kappa)
heavy: B1 heavy with M238H, L297Q, P398M
light: B1 light
B10: M103205H795-MY318/M103202L889-SK1 (antibody, human IgG1, kappa)
heavy: B1 heavy with M238L, D270E, L297Q, K328T, P398M
light: B1 light
B11: M103205H795-MY281/M103202L889-SK1 (antibody, human IgG1, kappa)
heavy: B1 heavy with M238Q
light: B1 light
B12: M103205H795-MY309/M103202L889-SK1 (antibody, human IgG1, kappa)
heavy: B1 heavy with M238T, D270E, L297Q, P398M
light: B1 light
B13: M103205H795-MY308/M103202L889-SK1 (antibody, human IgG1, kappa)
heavy: B1 heavy with M238T, D270E, L297Q
light: B1 light

Molecular target: T1, cynomolgus monkey FcγRIIa1 …
Assay: SPR (Biacore), antibody captured, FcgR analyte, 25 C

Row | Kd [nM] | Binder
1 | 3000 | B1
2 | 1400 | B2
3 | 2800 | B3
4 | 2300 | B4
5 | 1000 | B5
6 | 1500 | B6
7 | 3000 | B7
8 | 2300 | B8
9 | 2300 | B9
10 | 7900 | B10
11 | 1900 | B11
12 | 3500 | B12
13 | 3900 | B13

Molecular target: T2, cynomolgus monkey FcγRIIa2 …
Assay: as above

Row | Kd [nM] | Binder
14 | 3600 | B1
15 | 1500 | B2
16 | 3300 | B3
17 | 3300 | B4
18 | 1200 | B5
19 | 2500 | B6
20 | 2900 | B7
21 | 3400 | B8
22 | 2200 | B9
23 | 7700 | B10
24 | 2500 | B11
25 | 2500 | B12
26 | 4600 | B13

Molecular target: T3, cynomolgus monkey FcγRIIb extracellular …
Assay: as above

Row | Kd [nM] | Binder
27 | 1300 | B1
28 | 400 | B2
29 | 910 | B3
30 | 860 | B4
31 | 330 | B5
32 | 430 | B6
33 | 950 | B7
34 | 780 | B8
35 | 540 | B9
36 | 2200 | B10
37 | 620 | B11
38 | 710 | B12
39 | 1300 | B13

Molecular target: T6, cynomolgus monkey FcγRIIIaS extracellular domain, C-terminal His-tag (cynomolgus monkey, UniProt A3RFZ7 21-206 (rhesus entry))
T6 construct: also called cyno FcγRIIIaS; cynoFcγRIIIaS; not shown: His-tag added to C-terminus
Assay: as above

T6 sequence (A3RFZ7 21-206): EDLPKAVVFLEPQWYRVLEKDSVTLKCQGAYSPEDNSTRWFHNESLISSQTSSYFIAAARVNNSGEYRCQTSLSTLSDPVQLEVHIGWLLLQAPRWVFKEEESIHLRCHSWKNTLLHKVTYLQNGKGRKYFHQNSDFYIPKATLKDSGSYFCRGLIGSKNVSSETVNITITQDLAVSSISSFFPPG

Row | Kd [nM] | Binder
40 | 740 | B1
41 | 650 | B2
42 | 2400 | B3
43 | 4200 | B4
44 | 1800 | B5
45 | 4000 | B6
46 | 1800 | B7
47 | 2400 | B8
48 | 11000 | B9
49 | 1500 | B10
50 | 740 | B11
51 | 1200 | B12
52 | 2900 | B13

Molecular target: T4, human FcγRIIaH extracellular domain, …
Assay: as above

Row | Kd [nM] | Binder
53 | 530 | B1
54 | 110 | B2
55 | 140 | B3
56 | 1300 | B4
57 | 81 | B5
58 | 950 | B6
59 | 400 | B7
60 | 200 | B8
61 | 71 | B9
62 | 1100 | B10
63 | 130 | B11
64 | 140 | B12
65 | 450 | B13

Molecular target: T5, human FcγRIIb extracellular domain, …
Assay: as above

Row | Kd [nM] | Binder
66 | 4400 | B1
67 | 1100 | B2
68 | 4600 | B3
69 | 150 | B4
70 | 2900 | B5
71 | 140 | B6
72 | 2900 | B7
73 | 2100 | B8
74 | 2600 | B9
75 | 4800 | B10
76 | 1800 | B11
77 | 1600 | B12
78 | 4100 | B13

Molecular target: T7, human FcγRIIIaV extracellular domain, C-terminal His-tag (human, UniProt P08637 17-208)
T7 construct: also called FcgRIIIaV; not shown: His-tag added to C-terminus
Assay: as above

T7 sequence (P08637 17-208 F176V): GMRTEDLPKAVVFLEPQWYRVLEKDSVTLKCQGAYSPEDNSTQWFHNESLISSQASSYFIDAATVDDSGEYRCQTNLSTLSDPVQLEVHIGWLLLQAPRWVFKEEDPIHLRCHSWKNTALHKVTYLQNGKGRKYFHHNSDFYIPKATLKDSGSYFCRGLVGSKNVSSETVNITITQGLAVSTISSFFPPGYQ

Row | Kd [nM] | Binder
79 | 3400 | B1
80 | 2800 | B2
81 | 7000 | B3
82 | 39000 | B4
83 | 4400 | B5
84 | 28000 | B6
85 | 6900 | B7
86 | 7100 | B8
87 | 3400 | B9
88 | 8700 | B10
89 | 2100 | B11
90 | 4300 | B12
91 | 8300 | B13
